One protein from patent US4753882A, “Urease and process for preparation thereof” (Sapporo Breweries Limited, priority 1986, dated 1988) can be followed below.

What is called Km is the concentration of substrate that gives half-maximal velocity.

Substrate in the data set: NC(N)=O
The data set can be described thus: Km determination of urease by the GlDH method. The data set is classed as biochemical, Bacillus sp. TB-90. As to conditions: other: GlDH method, 40 mM Tris-HCl buffer pH 8.0, 37° C. As to the method:
A reaction solution consisting of 100 millimoles (mM) of urea, 40 mM of Tris-HCl buffer (pH 8.0), 0.86 mM of α-ketoglutaric acid, 0.31 mM of NADPH and 17.2 unit per milliliter (U/ml) of glutamate dehydrogenase (GlDH) was maintained at 37° C. Then an enzyme solution to be measured was added to the reaction solution to initiate the reaction, and a rate of decrease in absorbance at 37° C., E340 nm, was measured. All the concentrations are indicated in their final concentrations. A rate of decrease in NADPH was calculated from the rate of decrease in absorbance E340 nm, and the amount of ammonia formed by the action of urease was calculated from the rate of decrease in absorbance E340 nm.
In connection with enzyme activity, an amount of the enzyme forming 2 micromoles (μmole) of ammonia per minute was defined as one unit (1 U). This definition was calculated based on experiments carried out under the conditions described in the aforementioned GlDH method.
The Km value as determined under the conditions of the aforementioned GlDH method was about 0.3 mM for urea.

B1: urease (EC 3.5.1.5) from Bacillus sp. Strain TB-90 (FERM BP-795) (Bacillus sp. TB-90) (protein)
chain: MSFSMSRKQYADMFGPTVGDAIRLADSELFIEIEKDYTTYGDEVKFGGGKVIRDGMGQHPLATSDECVDLVLTNAIIVDYTGIYKADIGIKDGMIASIGKAGNPLLMDGVDMVIGAATEVIAAEGMIVTAGGIDAHIHFICPQQIETALASGVTTMIGGGTGPATGTNATTCTPGPWNIHRMLQAAEEFPINLGFLGKGNCSDEAPLKEQIEAGAVGLKLHEDWGSTAAAIDTCLKVADRYDVQVAIHTDTLNEGGFVEDTLKAIDGRVIHTYHTEGAGGGHAPDIIKAAGFPNILPSSTNPTRPYTINTLEEHLDMLMVCHHLDANIPEDIAFADSRIRKETIAAEDVLHDLGVFSMISSDSQAMGRVGEVIIRTWQTADKMKKQRGKLQEDNGVGDNFRVKRYIAKYTINPAIAHGIADYVGSVEVGKLADLVVWNPAFFGVKPELVLKGGMIAYSTMGDPNASIPTPQPVLYRPMFAAKGDAKYQTSITFVSKAAYEKGIHEQLGLKKKVKPVHGIRKLTKKDLILNDKTPKIDVDPQTYEVKVDGQLVTCEPAEIVPMAQRYFLF
B1: the Km worked out at 300 µM.
